Experiment: soluble on expression in E. coli; label from the status in PepcDB or PDB records

Sequence	soluble on expression in E. coli
MSEIKQLPTRDEVPTPLTWDLTKIFKDDAAFDVAYNQLIEELNQAESFKGTLGDGAEAFLAALEYVLDVYRKVETLYVYSHLKNDQDTTNTAYQALYARASSLYAQVSEAVSWFDPEVLTLSDEQIWGYFEEQPKLAVYRHYIQNILDERPHVLSMEQEALLAGASEIFGASSNTFSILNNADLEFPTVQNAEGETIQLSHGVYGQLMESVDPSVREAAFKGLYKVYKQFRNTLASTLGAHVKTHNYKAKIRNYDSARAASLASNHIPESVHETLVAVVNKHLPLLHRYVKLRKKLLNVEELHMYDLYAPLLGEAPIRYSYEEAKEKAIEALKPLGEDYLSIVKEAFSSRWIDVIENQGKRSGAYSSGAYDTAPYILMNWHDSLDQLFTLVHEMGHSVHSYYTRNNQPYVYGDYSIFLAEIASTTNENILTEYLLQTETDPKVRAYVLNHYLDGFKGTIFRQTQFAEFEHFIHTEDAKGTPLTSEYLSEYYGELNAKYYGPEVVRDEEISYEWARIPHFYYNYYVYQYATGFSAASALSKHILAGEEGALENYLNYLKAGSSDFPIEVMKKAGVDMTQAAYIEDAMKVFEERLTELEALVEKL	not soluble
MEILQFIGYGNMAQAILEGAHEILSKRFILEITGRNPEKIAPFLQEKNIQAQIVPYKDAIDIHQKFVFLLFKPYNLKDFNYQGQAKSVLSALAGVGFKALSDAIDSLHYLKCMPNIASKFALSSTAVCEKSPMPLISQKALSVIESFGNCVRVGHEELVDASVATNGSALAFLSLVANSLKDAGIREGLNARGSLELVKMSFKGFAKLLEKERPEMIIEQICTPKGATIEGLSVLEKKGVRGAFIEACHKSVKKMRLLEHHHHHH	not soluble
MGHHHHHHSHMAATKRKRRGGFAVQAKKPKRNEIDAEPPAKRHATAEEVEEEERDRIPGPVCKGKWKNKERILIFSSRGINFRTRHLMQDLRMLMPHSKADTKMDRKDKLFVINEVCEMKNCNKCIYFEAKKKQDLYMW	not soluble
MSTRYPTLTRSGFVLPERMKASYEGAADGRRSATWDAPDTGVNSLIMPALRNLRSRSRAAVRNDPYAANAIDRRVSNLIGTGITPQPRIADKELRRIFQETWEDWVDESDADQLTDFYGQQALIARTVEQSGECFVRLRPRRMDDGLAVPLQLQCLAPEFVPHDKFEVTSTGNIIRAGIEFNGFGKRVAYWCYRSHPSDMTSINAGYNMLVRIPASQMLHIFEPVEPGQLRGVPRLAPVLKRLRSLDNFDDAVLFRQEVANLFAGFIRKPSADGPPMLDPLTGAPIKIGGDGFTPMVALEPGTMQELLPGEEVEFSTPPDGGNNYPDFMRQQLMAAAAGAGLPYELMTGDMRGVNDRTIRVVLNEFRRRLEQLQFSVYVHQLCRPVRAAWMDMAVLSGALQLDDYAARRREYLRTRWVPQGWSYIHPVQDVQSRTMEINAGLASRSEMCLRTGTDAEIVDEENAADAARARGLGLNYSTLSAFDEDPDEKENP	not soluble
MTAESPTIRLERYSERHVEGLTALYNDPAVARQVLQMPYQSVEQRRKRLHDSADDDRLLILVALHQGDVIGSASLEQHPRIRRSHSGSIGMGVAVAWQGKGVGSRLLGELLDIADNWMNLRRVELTVYTDNAPALALYRKFGFETEGEMRDYAVRDGRFVDVYSMARLRRVEGRVGE	soluble
MQEYSVEVALVHPDDMVNLFGSNERHLKLIEENLGVVIHARTERVQILGETEEAIELARLTIKALLVLVGRGMIVNTSDVVTALSMAQNGNIDKFVALYEEEIIKDSYGKPIRVKTLGQKVYVDSVKSHDIVFGIGPAGTGKTFLAVTLAITALKRGQVKRIILTRPAVEAGESLGFLPGDLKEKVDPYLRPVYDALYQILGKEQTSRLMEREIIEIAPLAYMRGRTLDDAFVILDEAQNTTIMQMKMFLTRLGFNSKMIVNGDISQIDLPKNVKSGLVDASEKLKDIKQIDFVYLSAKDVVRHPVVAEIINAYEESTDVR	not soluble
MWTDAGGQVHEAASGDVRIASLVPSITELLFDLGLADQLVARTGFCIHPEPAVRAVAKVGGTKDVKLDRLRALAPTHVVVNIDENRRETVDEIRTFVPHVIVTHPCAPEDNLALYRLLGGIFGRRPQAEALVGQLRGELDAIQAQTWPARRVLYAIWQDPWMTVSRATYISRMLALVNWATWPDDADTSDTPAACVDGDCSRPNAPGERYPTFRWSDALVRELDAVLLSTEPYRFTEDHADALERQIGKPVLLVDGEMLSWYGSRAVAGARYLRSLAQGFLEHHHHHH	soluble
MSLPIDEHVNAVKTVVVPAAGLGTRFLPATKTVPKELLPVVDTPGIELIAAEAAELGATRLAIITAPNKAGVLAHFERSSELEETLMERGKTDQVEIIRRAADLIKAVPVTQDKPLGLGHAVGLAESVLDDDEDVVAVMLPDDLVLPTGVMERMAQVRAEFGGSVLCAVEVSEADVSKYGIFEIEADTKDSDVKKVKGMVEKPAIEDAPSRLAATGRYLLDRKIFDALRRITPGAGGELQLTDAIDLLIDEGHPVHIVIHQGKRHDLGNPGGYIPACVDFGLSHPVYGAQLKDAIKQILAEHEAAERIADDSQVKLEHHHHHH	soluble
MAHHHHHHSLQTGIPALPPIAQPLPVPAPAPVTPPAPTVPVPQEPAPVPQPPMPQPSVPQTPAPQKPVTPRPAPAPSRAPLLIQARANVPALVAGKKTTVPVLKTLTIPAERAAQLRQRGEVSASLQADLDTFLKSLAAPRDARFEQQDDGQWAVVQPNGLKVDAQATRAAVAKVLRDPRGVSANVVVTGQVAPQRTLDFFASRGITTFLATGFTSYYGSSPERVKNIHVGAQNFKDRLFEGDVFSFNKFIGPVSERNGYVPGLVIAGDQTASGVGGGICQVSTTVFRTLYGAGLGIVQRQNHSYQVFYYDPQGLDATIYQPQLDLKFANTTGGPIWFQTEWDDQEATLTITAFGQARDYQVQVDAPKTLKTVAPPKDRLIPDASLPAGQRKQVDWAAPGATIEVTRRFTRGGKTFKQDTLRSVYRPWPNIFRVGTKKEG	not soluble
LLYIDNIPLVEYNNIIQVEYVVINMLKHGILGLLNYGDMTGYEIMKVFRDSLSFFWTANTSQIYRELNTLKKDGFVTDIVVKQTGKPDKKVFSITESGREELKRWLREYDYGNRNSPLCMKVFFSGELPKEENIERLREIKNEAQQAIERYSSVFETMKIYKGMVARPEDSVYWNMTVEYGIRYMKMLSEWCDCCIKILEDVEK	soluble
MANEIPTKGILKSEALKQYIMETSAYPREHELLKELRKATVQKYGNLSEMEVPVDEGHFLSMLVKIMNAKNTIEIGVFTGYSLLTTALALPEDGRITAIDIDKEAYEVGLEFIKKAGVDHKINFIHSDGLKALDQLVNDKCEFDFAFADADKSSYVNFHERLLKLVKVGGIIAFDNTLWFGFVAEDEDGVPEHMREYRAALIEFNKKLALDPRVEVSQISIGDGITLCRRLV	soluble
MGSDKIHHHHHHMNGKLQSSDVKNETPYNIPLLINENVISSGISLISLWHTYADEHYRVIWPRDKKKPLIANSWVAVYTVQGCGKILLKNGEQITLHSNCIIFLKPMDIHSYHCEGLVWEQYWMEFTPTSMMDIPVGQQSVIYNGEIYNQELTEVAELITSPEAIKNNLAVAFLTKIIYQWICLMSADGKKDPQRRQIEKLIATLHASLQQRWSVADMAATIPCSEAWLRRLFLRYTGKTPKEYYLDARLDLALSLLKQQGNSVGEVADTLNFFDSFHFSKAFKHKFGYAPSAVLKNTDQHPTDASPHN	not soluble
MSLSAFDAFPLGQPAFVTNILDRAAHLRRDDEKLFALEQKPSSRAYVVHRDSLLVKREGENVRALLGIDEALKCGANPGTIFLGLRDGAAVFGMGLSQAAAEKLVGREDYSLTELRGMAMQGAIPPDELSAIAMAKSMVSWHQRHGYCANCGTRSAMKEGGWKRDCPACKAEHFPRTDPVVIMLVASGEKCLLGRQKQFPPGMFSCLAGFVEAAETIEDAVRREILEESGIRCTDVQYYMTQPWPYPSSLMIGCSARALNEDIVVDHSELEDARWFTREEAALMLTRTHPDGLAGPHPFAIAHHLLGRWVHDKSGEGHHHHHH	soluble
MKKTLYIFQNGELRRKDHSLYFETEERKRYIPVENTNDIYIFGEVDVSKRFLEFAAQKEIIVHYFNHYGYYVGSFYPREHLNSGHVVLKQAEHYIDPAKRLELACLFVQGSIRQMERVLKYYRSRLSDPEELEKALQLIEREEGKLSQANTVEQLMAVEGHIREAYYASFDAILRHPDFVFEKRTKRPPHNRLNALISFGNSIVYTMCLSEIYKTYLDPRIGFLHSTNFRRFSLNLDIAEIFKPIIVDRLIFTLVNKRMLSSKHFEKLTNGIVLNEEGRKLFVSELEKKMQTTVQHRHLGKSVSYRRLIRLELYKVQKHILGEKMYEPYAARW	not soluble
MYYLELALGTQEMEAIVGKVTEVNKDTFWPIVKAAGDKPVVLDMFTQWCGPCKAMAPKYEKLAEEYLDVIFLKLDCNQENKTLAKELGIRVVPTFKILKENSVVGEVTGAKYDKLLEAIQAARS	soluble
MGSDKIHHHHHHMMKILFIYRHPSMGFSIGKVFRPIEEEMKKYAEVDSIYMPTSQYSLNSIWQNIKTTRKAINSKKYDIVHITGTEHYLIPFLLGEKVVVTVHDLGHYFDIHGLKKILFWIMQIFSLKFAKAITCISNFTVQELKKTISIKNNKISVIFNEVDKNFSFKEKEFNKDYPVILHIGTRPHKNLSRTIKALNGIKCKLRIIGEITNKELDLLQKYKTDYSFASNLSDNDLLKEYQNADIINFPSCHEGFGMPIIEGQAVGRIVVTSNIEPMISVANNGAAICDPYNIESIRNTYIRVINDFQYRNDIILKGIDNVKKYSIETVAKQYFELYKTL	not soluble
MSLSSGGGQFIKPASGILTSGFSERTNPVTGKYESHKGQDIAGGGTVTVSAAASGTVVFSGFGASGSGFGGYGYVVKIDHGNGFQTLYGHMRAGSLKVVTGQQVSQGQPIGIMGSTGQSTGQHLHFEIHKNGIPVDPAPYIEGHHHHHH	soluble
MSLQMDQYLAQPLMIQEAQLVTIASGTTLSRELAQLTEQAWIQDSFVAEWVRRFHPELSKIKAGTYKLQPDMSLEQALALLVSGKEHQFSITFVEGSRFQEWRDILASNENITQQLTGLTEIDIAKALGIEHEKLEGLFLAETYHFTKGTSDVEILKRANQKLEKFLQVTWEHRQEGLPIQTPYEALILASIIEKETSIAEERERIAAVFINRLNKRMRLQTDPTVIYGMGETYDGNIRKKDLRARTPYNTYVINGLPPTPIAMPGEASIYAALNPEQSDYLYFVASGEGGHNFSKTLADHNRAVRAYLKKLRTKQEGHHHHHH	soluble
MRINEMALHEKPRERLITYGAKSLSNVELLAILLNTGRKGFSSIDIANELLKQQSTIRDLKKLSINDLLKIKGIGLYKAVILQAAFELGERINSTSTFDKVQITHPSDVASLMMSTMKDLEQEHFVVLLLNSKNIVTKQAWVYKGTLNSSIIHPREVFNIAIRESSNSIIVVHNHPSGDVTPSKEDITTTYRLKECGDILGINLLDHIIIGDNKFTSLVEAGYFDK	not soluble
MSLRDISILLAEDESELRELLHEYLQLFFGRVYAATSGDQAYDIYKQKKPDIIITDISMPNLDGLEMISKIRESDKETKIIVMSAHSEQERLLLAIKLNLESYLIKPIKTEALKTILLDIVKHLREKSRRTYVTENIYWEHETNTLWGNSKEIKLRKMESMLLKLLFSRPNEIFSTKEIFDYLHETKNDKEFSVHAVTSLMKRLRAKLPNEVIHNIYGSGYKIIPIEGHHHHHH	soluble
MSKPMKILLANPRGFCAGVDRAISIVERALELYQPPIYVRHEVVHNRFVVEGLKQRGARFVEELNEVPDDNIVIFSAHGVSQAVRQEAKERSLTVFDATCPLVTKVHMEVARASRKHMEVVLIGHAGHPEVEGTMGQYASDTGGMYLVEKPEDVVSLQAKVKDPSNLHYVSQTTLSVDETADVIDELRRVFPKIQGPRKDDICYATQNRQDAVRILAEQVDVMVVVGSKNSSNSTRLKELAEKLGTPGYLIDCPQDIDPEWFVDAQLIGVTAGASAPEELVNQILDRIKELGATSVEEVLGREENMFFEVPKELQIKQVD	soluble
